These results are taken from US20240109965A1.

Where a chain is given by its changes, count along the chain named.

In assay [1] the target is cynomolgus T cell receptor (TCRαβ) on primary cynomolgus T cells (cynomolgus). The experiment in a line: cell-based or functional assay.
The target of assay [2] is human T cell receptor (TCRαβ) on primary human T cells (human). The experiment in a line: cell-based or functional assay.
human T cell receptor (TCRαβ) on primary human T cells (human), sequence (P0DTU3 134-275, chain 1 of 2): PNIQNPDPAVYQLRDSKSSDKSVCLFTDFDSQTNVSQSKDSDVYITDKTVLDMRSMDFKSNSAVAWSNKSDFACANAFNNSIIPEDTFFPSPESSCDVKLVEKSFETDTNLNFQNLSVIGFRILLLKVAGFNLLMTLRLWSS
human T cell receptor (TCRαβ) on primary human T cells (human), sequence (P01850 other isoform, or with tags, fused parts or gaps, chain 2 of 2, further chain): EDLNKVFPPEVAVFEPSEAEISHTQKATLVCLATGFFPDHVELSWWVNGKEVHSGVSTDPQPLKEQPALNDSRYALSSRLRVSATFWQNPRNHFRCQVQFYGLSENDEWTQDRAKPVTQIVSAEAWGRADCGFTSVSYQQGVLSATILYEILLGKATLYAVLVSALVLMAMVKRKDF

B1: A022600427 (protein)
chain: DVQLVESGGGVVQPGGSLRLSCVASGYVHKINFYGWYRQAPGKEREKVAHISIGDQTDYADSAKGRFTISRDESKNTVYLQMNSLRPEDTAAYYCRALSRIWPYDYWGQGTLVTVSSGGGGSEVQLVESGGGVVQPGGSLRLSCAASGFTFSSFAMTWVRRPPGKGLEWVATITNAGVTSYADSVKGRFTISRDNAKNTLYLQMNSLRPEDTALYICANARRTGPRAPTDIGSYRGQGTLVTVSSGGGGSGGGSEVQLVESGGGVVQPGGSLRLSCAASGSIFRSVFSSSTMEWYRQAPGKKRELVARIAPGEGTYYGALYADSVKGRFTISRDNAKNTVYLQMNSLRPEDTALYYCASGVAWGQGTLVTVSSGGGGSGGGSEVQLVESGGGVVQPGGSLRLSCAASGFTFRSFGMSWVRQAPGKGPEWVSSISGSGSDTLYADSVKGRFTISRDNSKNTLYLQMNSLRPEDTALYYCTIGGSLSRSSQGTLVTVSSA
On to B1, for which, in assay [1], the IC50 (M), cynomolgus T cell mediated HuH-7 cell killing, Cynomolgus Donor #1 came out at 2.3e-08 M and the IC50 (M), cynomolgus T cell mediated HuH-7 cell killing, Cynomolgus Donor #2 is 2.5e-10 M. In assay [2], this molecule came in with an IC50 (M), human T cell mediated HuH-7 cell killing, Human Donor #1 of 3e-10 M and an IC50 (M), human T cell mediated HuH-7 cell killing, Human Donor #2 of 1.1e-10 M.

B2: A022600462 (protein)
chain: B1 chain with D61E, W102Y, A176K
In assay [1], B2 came in with an IC50 (M), cynomolgus T cell mediated HuH-7 cell killing, Cynomolgus Donor #1 of 3.9e-09 M and an IC50 (M), cynomolgus T cell mediated HuH-7 cell killing, Cynomolgus Donor #2 of 2.2e-10 M. In assay [2], this molecule yielded an IC50 (M), human T cell mediated HuH-7 cell killing, Human Donor #1 of 2.8e-10 M and an IC50 (M), human T cell mediated HuH-7 cell killing, Human Donor #2 of 1e-10 M.
